What all share (assay type): cell-based
One assay concerns the target T1, CCR6 (Homo sapiens, UniProt P51684).
T1 construct: The cDNA fragment covering the open reading frame for CCR6 chemokine receptor was cloned into pEGFP-N1 vector (CLONTECH); expressed in transfected cells; host or cells: HEK293 (transient)
T1 sequence (P51684 1-374): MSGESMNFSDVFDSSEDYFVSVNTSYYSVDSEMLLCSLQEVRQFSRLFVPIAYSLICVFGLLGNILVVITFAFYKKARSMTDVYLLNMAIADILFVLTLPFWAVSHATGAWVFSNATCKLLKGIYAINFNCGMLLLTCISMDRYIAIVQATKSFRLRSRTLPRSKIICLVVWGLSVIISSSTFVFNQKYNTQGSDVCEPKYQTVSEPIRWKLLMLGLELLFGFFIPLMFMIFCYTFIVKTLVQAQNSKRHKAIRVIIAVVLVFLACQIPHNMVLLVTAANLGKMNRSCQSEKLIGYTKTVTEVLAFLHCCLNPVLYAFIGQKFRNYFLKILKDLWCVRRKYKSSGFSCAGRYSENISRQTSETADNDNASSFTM
The assay is described as follows: Internalization of CCR6-EGFP in transiently transfected HEK293 cells. The following applies: HEK293 cells transfected with pCCR6-EGFP; 37° C., 2 hours. Here is the method:
(§1) The cDNA fragment covering the open reading frame for CCR6 chemokine receptor was cloned into pEGFP-N1 vector (CLONTECH). pCCR6-EGFP transiently expressing HEK293 cells were cultured in glass-bottom dishes in RPMI 1640 with 10% FBS. After 16-24 hours of serum starvation, cells were treated with CKLF1 C-terminal peptides or MIP3α at 37° C. for 2 hours. Cells were washed with cold PBS and fixed with 2% paraformaldehyde in PBS. The subcellular localization of CCR6-EGFP protein was visualized using a Leica TCS-NT confocal fluorescence microscope with a 63× oil immersion lens (Wetzler, Heidelberg, Germany). The excitation and emission wavelengths were 488 and 515-540 nm, respectively.

Assay [1] has as its target T2, CCR4 (Homo sapiens, UniProt P51679).
T2 construct: The cDNA fragments covering the open reading frames for various chemokine receptors were obtained as follows; expressed in transfected cells; host or cells: HEK293 (transient, electroporation)
T2 sequence (P51679 1-360): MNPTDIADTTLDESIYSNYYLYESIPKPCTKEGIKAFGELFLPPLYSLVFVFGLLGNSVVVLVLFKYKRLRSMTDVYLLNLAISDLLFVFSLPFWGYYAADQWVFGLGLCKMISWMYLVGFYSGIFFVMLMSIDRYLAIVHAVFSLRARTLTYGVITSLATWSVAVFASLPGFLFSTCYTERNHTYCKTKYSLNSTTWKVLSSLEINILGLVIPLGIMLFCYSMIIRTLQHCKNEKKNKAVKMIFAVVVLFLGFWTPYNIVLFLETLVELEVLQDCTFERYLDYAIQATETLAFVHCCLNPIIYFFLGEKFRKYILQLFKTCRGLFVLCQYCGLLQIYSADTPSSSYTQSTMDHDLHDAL
The assay is described as follows: Internalization of CCR4-EGFP in transiently transfected HEK293 cells. The following applies: HEK293 cells transfected with pCCR4-EGFP; 37° C., 2 hours. Here is the method: as §1, with “CCR4” for “CCR6”, “pCCR4-EGFP” for “pCCR6-EGFP”, “16 to 24” for “16-24”, “hours” for “hours of”, “TARC” for “MIP3α”, “CCR4-EGFP” for “CCR6-EGFP”

The target in assay [2] is T2, CCR4. The experiment in a line: Calcium flux assay in CCR4-transfected HEK293 cells. The following applies: for calcium flux: CCR4-transfected HEK293 cells, 167 nM C27 or C19, 100 nM TARC; for desensitization of transfectants to subsequent TARC treatment: CCR4 transfectants, first 167 nM peptide, then 100 nM TARC. From the text:
The cDNA fragments covering the open reading frames for various chemokine receptors were obtained as follows. CCR4, CCR5 and CCR6 receptors were cloned from a K562 cell cDNA library by polymerase chain reaction (PCR). The primers were designed using the sequences from the following GenBank™ submissions: CCR4 (NM_005508.2), CCR5 (NM_000579) and CCR6 (AY242126). The fragments were cloned into an expression vector pcDI (modified in our lab from pcDNA3 vector (Invitrogen), in which the part between BgI II-Kpn I was replaced by the fragment of pCl vector (Promega) digested with BgI II-Kpn I) or pEGFP-N1 vector (CLONTECH) for efficient expression in HEK293 cells. The sequences coding receptors in expression plasmids were confirmed by DNA sequencing, which is consistent with the sequence submitted in GenBank™.
HEK293 cells were grown in RPMI 1640 supplemented with 10% heat-inactivated FBS, penicillin (100 U/ml) and streptomycin (100 μg/ml). Every 4×10^6 HEK293 cells in 400 μl were transiently transfected by electroporation with 15 μg of the expression plasmid at 120 V, 20 ms using an electric pulse generator (Electro Square Porator ECM 830, BTX, San Diego, Calif.), and calcium mobilization assay and chemotaxis assays were performed 48 hours later.
HEK293 cells transfected with pcDI-CCR4 or pcDI-CCR5 were grown in specialized glass-bottom microwell dishes (MatTek Corporation, U.S.A.) and loaded with 10 μM fluo-3/AM in HEPES-buffered saline at 37° C. for 1 hour in the dark. The cells were rinsed with HEPES-buffered saline and stimulated with 167 nM secreted CKLF1 peptides and 100 nM TARC or RANTES, respectively. Fluorescence was monitored at 488 nm (excitation wavelength) and 530 nm (emission wavelength) every 5 second using a Leica TCS-NT confocal fluorescence microscope with a 40× oil immersion lens (Wetzler, Heidelberg, Germany). The measurement was completed at room temperature and each field of cells was selected at random. Images were collected at 5 second intervals for 405 seconds. The images were analyzed for relative fluorescence using Leica confocal software. The relative fluorescence was determined using Microsoft Excel. All calcium flux assays were performed in the presence of extracellular calcium (in the absence of EDTA or EGTA) in the assay buffers. Therefore, both intracellular calcium release and extracellular calcium influx were analyzed.

With “ALIYRKL LFNPSGPYQKKPVHEKKEVL (ALIYRKLLFNPSGPYQKKPVHEKKEVL; listed as Homo sapiens) [C27]”, the “internalization of CCR6-EGFP” value with CCR6 was “could induce internalization of CCR6-EGFP”. In addition, the “internalization of CCR4-EGFP” value with CCR4 [1] was “could induce internalization of CCR4-EGFP”. For the same substance, in the assay with CCR4 [2], the calcium flux result was “could induce calcium flux” and the “desensitization of transfectants to subsequent TARC treatment” value is “could desensitize”.
As to “FNPSGPYQKKPVHEKKEVL (listed as Homo sapiens) [C19]”, the “internalization of CCR6-EGFP” value with CCR6 is listed as “could induce internalization of CCR6-EGFP”. Also, in the assay with CCR4 [1], the “internalization of CCR4-EGFP” value was “could induce internalization of CCR4-EGFP”. Further, in the assay with CCR4 [2], the calcium flux result is listed as “could induce calcium flux” and the “desensitization of transfectants to subsequent TARC treatment” value is “could desensitize”.

Source of the values: US7465453B2, “Polypeptide fragments of CKLF1” (Peking University, priority 2004, dated 2008).
